Sequences and labels used below:
T1: human RXFP1 receptor (human, UniProt Q9HBX9 1-757)
T1 sequence (looked up): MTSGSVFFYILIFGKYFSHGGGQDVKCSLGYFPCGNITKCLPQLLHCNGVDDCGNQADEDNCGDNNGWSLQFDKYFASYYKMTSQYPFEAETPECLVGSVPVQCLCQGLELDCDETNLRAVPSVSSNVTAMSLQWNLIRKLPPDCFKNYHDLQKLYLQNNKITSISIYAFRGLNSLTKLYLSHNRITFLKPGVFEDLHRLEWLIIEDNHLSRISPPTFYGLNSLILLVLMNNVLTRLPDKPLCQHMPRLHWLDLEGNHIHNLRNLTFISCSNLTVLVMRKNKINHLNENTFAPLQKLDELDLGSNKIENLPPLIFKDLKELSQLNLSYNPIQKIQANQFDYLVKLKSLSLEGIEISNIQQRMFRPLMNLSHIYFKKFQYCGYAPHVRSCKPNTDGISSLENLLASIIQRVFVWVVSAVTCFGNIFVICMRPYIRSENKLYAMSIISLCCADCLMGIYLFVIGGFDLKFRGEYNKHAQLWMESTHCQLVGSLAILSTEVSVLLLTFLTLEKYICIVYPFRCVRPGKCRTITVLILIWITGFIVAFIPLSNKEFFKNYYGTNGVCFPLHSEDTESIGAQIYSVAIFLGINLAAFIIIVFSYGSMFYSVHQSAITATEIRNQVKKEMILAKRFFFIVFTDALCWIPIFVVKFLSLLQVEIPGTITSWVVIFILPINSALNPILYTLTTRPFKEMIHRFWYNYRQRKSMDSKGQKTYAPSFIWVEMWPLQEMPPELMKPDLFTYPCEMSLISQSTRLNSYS

B1: AQ1-KGPKGP-Glu^γ-C14-COOH (ligand)
chain 1: XLYSALANKCCHVGCTKRSLARFC
chain 2: ASWMEEVIKLCGRELVRAQIAICGMSTWS
peptide: KGPKGPE
modifications: not fully specified; Glu^γ bonded by amide to fatty acid -C14-COOH; oxime-linked to pAcF of the A chain; pAcF (para-acetyl-L-phenylalanine) at position 1, oxime-linked to PK enhancer KGPKGP-Glu^γ-C14-COOH
B2: AQ1-Spermine-Glu^γ-C14-COOH (ligand)
chain 1: XLYSALANKCCHVGCTKRSLARFC
chain 2: ASWMEEVIKLCGRELVRAQIAICGMSTWS
modifications: not fully specified; pAcF (para-acetyl-L-phenylalanine) at position 1, oxime-linked to PK enhancer Spermine-Glu^γ-C14-COOH (compound 27 of Example 6)
B3: AQ1-EGGS-Glu^γ-C14-COOH (ligand)
chain 1: XLYSALANKCCHVGCTKRSLARFC
chain 2: ASWMEEVIKLCGRELVRAQIAICGMSTWS
peptide: EGGSE
modifications: not fully specified; Glu^γ bonded by amide to fatty acid -C14-COOH; oxime-linked to pAcF of the A chain; pAcF (para-acetyl-L-phenylalanine) at position 1, oxime-linked to PK enhancer EGGS-Glu^γ-C14-COOH
B4: AQ1-EAQKAQAEAQKAQAEAQKAQA-Glu^γ-C15-COOH (ligand)
chain 1: XLYSALANKCCHVGCTKRSLARFC
chain 2: ASWMEEVIKLCGRELVRAQIAICGMSTWS
peptide: EAQKAQAEAQKAQAEAQKAQAE
modifications: not fully specified; Glu^γ bonded by amide to fatty acid -C15-COOH; oxime-linked to pAcF of the A chain; pAcF (para-acetyl-L-phenylalanine) at position 1, oxime-linked to PK enhancer EAQKAQAEAQKAQAEAQKAQA-Glu^γ-C15-COOH
B5: AQ1-KK-Glu^γ-C14-CH3 (ligand)
chain 1: XLYSALANKCCHVGCTKRSLARFC
chain 2: ASWMEEVIKLCGRELVRAQIAICGMSTWS
peptide: KKE
modifications: not fully specified; Glu^γ bonded by amide to fatty acid -C14-CH3; oxime-linked to pAcF of the A chain; pAcF (para-acetyl-L-phenylalanine) at position 1, oxime-linked to PK enhancer KK-Glu^γ-C14-CH3
B6: AQ1-KGPGSE-Glu^γ-C14-COOH (ligand)
chain 1: XLYSALANKCCHVGCTKRSLARFC
chain 2: ASWMEEVIKLCGRELVRAQIAICGMSTWS
peptide: KGPGSEE
modifications: not fully specified; Glu^γ bonded by amide to fatty acid -C14-COOH; oxime-linked to pAcF of the A chain; pAcF (para-acetyl-L-phenylalanine) at position 1, oxime-linked to PK enhancer KGPGSE-Glu^γ-C14-COOH
B7: AQ1-SGGGS-Glu^γ-C14-COOH (ligand)
chain 1: XLYSALANKCCHVGCTKRSLARFC
chain 2: ASWMEEVIKLCGRELVRAQIAICGMSTWS
peptide: SGGGSE
modifications: not fully specified; Glu^γ bonded by amide to fatty acid -C14-COOH; oxime-linked to pAcF of the A chain; pAcF (para-acetyl-L-phenylalanine) at position 1, oxime-linked to PK enhancer SGGGS-Glu^γ-C14-COOH
B8: AQ1-GGGGS-Glu^γ (SEQ ID NO: 139)-C14-COOH (ligand)
chain 1: XLYSALANKCCHVGCTKRSLARFC
chain 2: ASWMEEVIKLCGRELVRAQIAICGMSTWS
peptide: GGGGSE
modifications: not fully specified; Glu^γ bonded by amide to fatty acid -C14-COOH (-(C=O)-(CH2)13-COOH); oxime-linked to pAcF of the A chain; modified para-acetyl-L-phenylalanine at the N-terminus (position 1), oxime-linked to PK enhancer GGGGS-Glu^γ-C14-COOH (Formula III)
B9: AQ1-PEG36-Glu-C13-COOH (ligand)
chain 1: XLYSALANKCCHVGCTKRSLARFC
chain 2: ASWMEEVIKLCGRELVRAQIAICGMSTWS
modifications: not fully specified; pAcF (para-acetyl-L-phenylalanine) at position 1, oxime-linked to PK enhancer PEG36-Glu-C13-COOH
B10: AQ1-EGGGP-Glu^γ-C14-COOH (ligand)
chain 1: XLYSALANKCCHVGCTKRSLARFC
chain 2: ASWMEEVIKLCGRELVRAQIAICGMSTWS
peptide: EGGGPE
modifications: not fully specified; Glu^γ bonded by amide to fatty acid -C14-COOH; oxime-linked to pAcF of the A chain; pAcF (para-acetyl-L-phenylalanine) at position 1, oxime-linked to PK enhancer EGGGP-Glu^γ-C14-COOH
B11: AQ1-Glu-C13-COOH (ligand)
chain 1: XLYSALANKCCHVGCTKRSLARFC
chain 2: ASWMEEVIKLCGRELVRAQIAICGMSTWS
modifications: not fully specified; pAcF (para-acetyl-L-phenylalanine) at position 1, oxime-linked to PK enhancer Glu-C13-COOH
B12: AQ1-EEEEPEEEEPEEEEPEEEE-Glu^γ-C15-CH3 (ligand)
chain 1: XLYSALANKCCHVGCTKRSLARFC
chain 2: ASWMEEVIKLCGRELVRAQIAICGMSTWS
peptide: EEEEPEEEEPEEEEPEEEEE
modifications: not fully specified; Glu^γ bonded by amide to fatty acid -C15-CH3; oxime-linked to pAcF of the A chain; pAcF (para-acetyl-L-phenylalanine) at position 1, oxime-linked to PK enhancer EEEEPEEEEPEEEEPEEEE-Glu^γ-C15-CH3
B13: AQ1-EEEEGEEEEGEEEEGEEEE-Gluγ-C14-CH3 (ligand)
chain 1: XLYSALANKCCHVGCTKRSLARFC
chain 2: ASWMEEVIKLCGRELVRAQIAICGMSTWS
peptide: EEEEGEEEEGEEEEGEEEEE
modifications: not fully specified; Glu^γ bonded by amide to fatty acid -C14-CH3; oxime-linked to pAcF of the A chain; pAcF (para-acetyl-L-phenylalanine) at position 1, oxime-linked to PK enhancer EEEEGEEEEGEEEEGEEEE-Gluγ-C14-CH3
B14: AQ1-KK-Glu^γ-C13-COOH (ligand)
chain 1: XLYSALANKCCHVGCTKRSLARFC
chain 2: ASWMEEVIKLCGRELVRAQIAICGMSTWS
peptide: KKE
modifications: not fully specified; Glu^γ bonded by amide to fatty acid -C13-COOH; oxime-linked to pAcF of the A chain; pAcF (para-acetyl-L-phenylalanine) at position 1, oxime-linked to PK enhancer …

This experiment addresses T1, human RXFP1 receptor. The experiment can be described thus: cell-based or functional assay.
With B1, the “hRXFP1/CHO-K1 cAMP EC50 (nM, avg)” value stood at 0.23 nM.

As for B2, the “hRXFP1/CHO-K1 cAMP EC50 (nM, avg)” value is 0.39 nM.

On to B3, for which the “hRXFP1/CHO-K1 cAMP EC50 (nM, avg)” value is 0.33 nM.

As for B4, the “hRXFP1/CHO-K1 cAMP EC50 (nM, avg)” value worked out at 4.96 nM.

B5: the “hRXFP1/CHO-K1 cAMP EC50 (nM, avg)” value worked out at 0.35 nM.

For the molecule B6, the “hRXFP1/CHO-K1 cAMP EC50 (nM, avg)” value stood at 0.6 nM.

For the molecule B7, the “hRXFP1/CHO-K1 cAMP EC50 (nM, avg)” value is 0.32 nM.

Consider B8, for which the “hRXFP1/CHO-K1 cAMP EC50 (nM, avg)” value is 0.28 nM.

For B9, the “hRXFP1/CHO-K1 cAMP EC50 (nM, avg)” value was 0.25 nM.

For B10, the “hRXFP1/CHO-K1 cAMP EC50 (nM, avg)” value was 0.44 nM.

In the case of B11, the “hRXFP1/CHO-K1 cAMP EC50 (nM, avg)” value stood at 0.18 nM.

As for B12, the “hRXFP1/CHO-K1 cAMP EC50 (nM, avg)” value turned out to be 0.34 nM.

Turning to B13, the “hRXFP1/CHO-K1 cAMP EC50 (nM, avg)” value worked out at 0.67 nM.

Take B14: the “hRXFP1/CHO-K1 cAMP EC50 (nM, avg)” value was 0.1 nM.

(Values after patent US20220211812A1 (Bristol-Myers Squibb, published 2022).)
